As usually defined, the IC50 is the concentration that inhibits the measured activity by half. Higher therefore signals a need for much substance.

The target in the assay is T1, KRAS-G12V (Homo sapiens, UniProt P01116 1-189, limits assumed).
T1 construct: also called G12V mutant of KRAS
The assay is described as follows: disruption of the JAK1/KRAS-G12V interaction; the sentence names TR-FRET (FIG. 2B) and GST pull-down (FIG. 2C) and does not say which gave the value; competitor JAK1. A general note: TR-FRET usually uses a lanthanide donor and a delayed reading to cut background.

B1: RasKi: 8-mer 603-610 (peptide)
peptide: MDYKDDEG
notes: It was co-expressed or transduced by lentivirus in some cell assays; also called 8-mer WT; 8-mer peptide
B1 showed an IC50 of 870 nM.

Source of the values: US20220306688A1 (EMORY UNIVERSITY, published 2022).
